Common to all, as to assay: ITC; β16β17 at 25–50 μM in the cell titrated with 15–20 injections to 2–2.5 eq of α0α1; one-site binding model; PBS (50 mM sodium phosphate, 150 mM NaCl, pH 7.04), 25 °C; mutants only against the wild-type partner
Holding throughout (details): both partners purified
(ITC needs no label: the signal is the heat of the interaction.)

The target of one test is T1, β16β17 K43G (human, UniProt P11277 1898-2083, K2046G).
T1 construct: erythrocyte β-spectrin, human, residues 1898-2083 (β16β17); mutant of m2; also called K2046G; source: E. coli C41(DE3), purified (Ni2+ agarose, thrombin cleavage, gel filtration)
T1 sequence (looked up): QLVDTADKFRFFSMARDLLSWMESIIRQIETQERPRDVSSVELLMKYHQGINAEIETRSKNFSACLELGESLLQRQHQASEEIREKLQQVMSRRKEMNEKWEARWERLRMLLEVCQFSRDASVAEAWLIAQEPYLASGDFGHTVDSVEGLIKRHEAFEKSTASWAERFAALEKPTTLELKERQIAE

For another test, the target named is T2, β16β17 A50G (human, UniProt P11277 1898-2083, A2053G).
T2 construct: erythrocyte β-spectrin, human, residues 1898-2083 (β16β17); mutant of m2; also called A2053G; source: E. coli C41(DE3), purified (Ni2+ agarose, thrombin cleavage, gel filtration)
T2 sequence (looked up): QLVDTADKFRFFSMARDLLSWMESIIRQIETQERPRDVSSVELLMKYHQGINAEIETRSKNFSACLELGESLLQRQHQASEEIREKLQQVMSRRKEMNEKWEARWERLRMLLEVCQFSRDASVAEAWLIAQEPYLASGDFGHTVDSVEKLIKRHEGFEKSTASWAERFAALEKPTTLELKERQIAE

A further test addresses T3, β16β17 C9G (human, UniProt P11277 1898-2083, C2012G).
T3 construct: erythrocyte β-spectrin, human, residues 1898-2083 (β16β17); mutant of m2; also called C2012G; source: E. coli C41(DE3), purified (Ni2+ agarose, thrombin cleavage, gel filtration)
T3 sequence (looked up): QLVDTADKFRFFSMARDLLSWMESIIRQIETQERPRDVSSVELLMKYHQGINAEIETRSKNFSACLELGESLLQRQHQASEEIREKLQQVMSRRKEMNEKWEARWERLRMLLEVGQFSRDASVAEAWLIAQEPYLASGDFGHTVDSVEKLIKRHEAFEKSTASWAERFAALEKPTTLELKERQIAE

The next test addresses T4, β16β17 F11A (human, UniProt P11277 1898-2083, F2014A).
T4 construct: erythrocyte β-spectrin, human, residues 1898-2083 (β16β17); mutant of m2; also called F2014A; source: E. coli C41(DE3), purified (Ni2+ agarose, thrombin cleavage, gel filtration)
T4 sequence (looked up): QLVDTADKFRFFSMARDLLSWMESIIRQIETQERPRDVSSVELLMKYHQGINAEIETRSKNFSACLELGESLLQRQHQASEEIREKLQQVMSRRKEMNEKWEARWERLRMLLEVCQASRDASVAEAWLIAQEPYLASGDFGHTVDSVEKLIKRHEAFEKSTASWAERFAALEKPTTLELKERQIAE

The next test has as its target T5, β16β17 L29A (human, UniProt P11277 1898-2083, L2032A).
T5 construct: erythrocyte β-spectrin, human, residues 1898-2083 (β16β17); mutant of m2; also called L2032A; source: E. coli C41(DE3), purified (Ni2+ agarose, thrombin cleavage, gel filtration)
T5 sequence (looked up): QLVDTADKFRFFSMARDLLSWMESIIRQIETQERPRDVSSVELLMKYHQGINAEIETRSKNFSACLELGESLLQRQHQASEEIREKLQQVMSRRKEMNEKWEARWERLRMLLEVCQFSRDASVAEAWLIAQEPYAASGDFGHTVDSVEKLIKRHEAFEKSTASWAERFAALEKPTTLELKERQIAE

In another test the target is T6, β16β17 V41A (human, UniProt P11277 1898-2083, V2044A).
T6 construct: erythrocyte β-spectrin, human, residues 1898-2083 (β16β17); mutant of m2; also called V2044A; source: E. coli C41(DE3), purified (Ni2+ agarose, thrombin cleavage, gel filtration)
T6 sequence (looked up): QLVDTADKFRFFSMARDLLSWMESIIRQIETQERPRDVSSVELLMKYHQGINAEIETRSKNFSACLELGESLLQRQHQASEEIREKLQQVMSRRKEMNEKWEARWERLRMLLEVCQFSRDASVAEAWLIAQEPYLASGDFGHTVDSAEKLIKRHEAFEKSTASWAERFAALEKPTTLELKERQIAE

Results on one molecule are retold here after publication PMC9082959, “Mechanism of Assembly of the Non-Covalent Spectrin Tetramerization Domain from Intrinsically Disordered Partners” (Journal of molecular biology, 2013).

B1: α0α1 (erythrocyte α-spectrin residues 2–163), wild type (domain or fragment, human, UniProt P02549 2-163, looked up)
chain: EQFPKETVVESSGPKVLETAEEIQERRQEVLTRYQSFKERVAERGQKLEDSYHLQVFKRDADDLGKWIMEKVNILTDKSYEDPTNIQGKYQKHQSLEAEVQTKSRLMSELEKTREERFTMGHSAHEETKAHIEELRHLWDLLLELTLEKGDQLLRALKFQQY
notes: synthetic gene (GenScript) in a modified pRSETA plasmid; also called α1α0; source: E. coli C41(DE3), purified (Ni2+ agarose, thrombin cleavage, gel filtration)
Turning to B1, the Ka is 328000 M⁻¹ with β16β17 K43G; 163000 M⁻¹ with β16β17 A50G; 470000 M⁻¹ in the test with β16β17 C9G; 6000 M⁻¹ with β16β17 F11A; 290000 M⁻¹ with β16β17 L29A; 420000 M⁻¹ with β16β17 V41A.
